# Measurements taken from PMC6582347.
# How the values were obtained:
# LexA = assay: PIFE titration; settings: FRET (Gal4): 130 mM NaCl, 10 mM Tris-HCl pH 8, 0.01% Tween 20, 10% glycerol, 0.5 nM substrate, PIFE (LexA): 130 mM NaCl, 10 mM Tris pH 8, 10% glycerol, 0.005% …
# [1] = test system: Gal4(1-147) (Saccharomyces cerevisiae); assay: ensemble FRET titration; settings: FRET (Gal4): 130 mM NaCl, 10 mM Tris-HCl pH 8, 0.01% Tween 20, 10% glycerol, 0.5 nM substrate, PIFE (LexA): 130 mM NaCl, 10 mM Tris pH 8, 10% glycerol, 0.005% …
substance,measurement,setting,value
601-LexA-W hexasome (H2A-H2B distal LexA site),K half,"LexA; hexasome, dimer-distal site",0.25 nM
DNA-LexA,K half,"LexA; naked DNA, Cy5-aminoC6-dT internal in reverse strand",0.3 nM
601-Gal4-S nucleosome,K half,"[1]; nucleosome, smFRET kon 0.011 s-1 nM-1, koff 0.32 s-1",19.6 nM
601-Gal4-S hexasome (H2A-H2B proximal to Gal4 site),K half,"[1]; hexasome, dimer-proximal site, smFRET kon 0.0052 s-1 nM-1, koff 0.37 s-1",47 nM
